Assays:
[1] = molecular target: T1, mouse TGF-βRII on MC3T3-E1 cells (mouse osteoblasts) (mouse, UniProt Q62312 24-567); test: cell-based or functional assay
T1 sequence (looked up): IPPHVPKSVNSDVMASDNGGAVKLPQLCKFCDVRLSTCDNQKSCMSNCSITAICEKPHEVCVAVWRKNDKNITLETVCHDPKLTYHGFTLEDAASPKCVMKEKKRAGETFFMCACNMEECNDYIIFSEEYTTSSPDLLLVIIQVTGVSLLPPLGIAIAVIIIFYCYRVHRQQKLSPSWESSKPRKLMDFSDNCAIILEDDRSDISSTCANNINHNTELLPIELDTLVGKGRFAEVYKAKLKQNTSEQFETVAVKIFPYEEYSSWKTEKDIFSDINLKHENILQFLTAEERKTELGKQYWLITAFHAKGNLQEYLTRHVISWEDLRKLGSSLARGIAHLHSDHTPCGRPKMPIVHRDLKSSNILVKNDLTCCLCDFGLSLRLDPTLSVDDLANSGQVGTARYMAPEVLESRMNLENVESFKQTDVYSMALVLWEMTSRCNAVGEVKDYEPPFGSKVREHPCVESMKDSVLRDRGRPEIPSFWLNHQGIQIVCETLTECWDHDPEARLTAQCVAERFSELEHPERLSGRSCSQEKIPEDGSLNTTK

[2] = molecular target: T2, recombinant human TGF-β RII/Fc chimera protein (human, UniProt P37173 24-159); test: SPR Biacore A100, antigen-Fc captured by anti-human IgG, purified dAb, 1:1 model
T2 construct: range 24-159; Made in HEK-F cells; Biotinylated where it was put on SA chips, otherwise captured by anti-human IgG; also called human TGFbRII/Fc; hRII-Fc; not shown: Fc region of human IgG1
T2 sequence (P37173 24-159 limits assumed, stated change not applied): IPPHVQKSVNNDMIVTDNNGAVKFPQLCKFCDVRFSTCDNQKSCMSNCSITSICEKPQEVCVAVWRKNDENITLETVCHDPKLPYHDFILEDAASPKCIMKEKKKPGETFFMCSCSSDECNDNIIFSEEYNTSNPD
Method: BIACORE™ A100 analysis was carried out using a capture surface on a CM5 chip. Anti-human IgG was used as the capturing agent and coupled to a CM5 biosensor chip by primary amine coupling. The Antigen molecule fused to the human Fc was captured on this immobilised surface to a level from 200 to 300 resonance units and supernatants or purified domain antibodies were passed over this captured surface. An injection of media or buffer over the captured antigen surface was used for double referencing. On each flow cell, a protein A spot allowed to confirm the presence of domain antibody on each sample injected. […] All runs were carried out at 25° C. using HBS-EP buffer as running buffer. Data were generated using the BIACORE™ A100 and analyzed using its inherent software. Kinetics from purified samples were fitted to the 1:1 binding model while supernatant off-rates were analyzed using the 1:1 dissociation model and/or using the binding level and the stability level of each sample in comparison to the parent molecule.
A selection of mutants with improved off-rate were purified and subjected to full BIACORE™ A100 kinetic analysis to determine their affinity (Table 10). The thermal stability of the mutants was also determined by generation of melting profiles in the presence of SYPRO™ Orange (Invitrogen). Briefly, the purified dAbs were diluted to 50 and 100 ug/ml in a 1:500 dilution of SYPRO™ Orange in PBS, and subjected to a 30-90° C. melt curve in a Mini OPTICON™ PCR machine (BioRad). The Tm of the major positive transition was determined at each concentration and used to calculate an estimated Tm value at 1 mg/ml as an indication of the melting temperature for comparison (Table 10).

[3] = molecular target: T2, recombinant human TGF-β RII/Fc chimera …; test: SPR Biacore, human TGFbRII-FC, 1:1 model
[4] = molecular target: human TGF-βRII on cells (SBE-bla HEK 293T cells; A549 cells) (human, UniProt P37173 23-567); test: cell-based or functional assay
Sequence of human TGF-βRII on cells (SBE-bla HEK 293T cells; A549 cells) (P37173 23-567): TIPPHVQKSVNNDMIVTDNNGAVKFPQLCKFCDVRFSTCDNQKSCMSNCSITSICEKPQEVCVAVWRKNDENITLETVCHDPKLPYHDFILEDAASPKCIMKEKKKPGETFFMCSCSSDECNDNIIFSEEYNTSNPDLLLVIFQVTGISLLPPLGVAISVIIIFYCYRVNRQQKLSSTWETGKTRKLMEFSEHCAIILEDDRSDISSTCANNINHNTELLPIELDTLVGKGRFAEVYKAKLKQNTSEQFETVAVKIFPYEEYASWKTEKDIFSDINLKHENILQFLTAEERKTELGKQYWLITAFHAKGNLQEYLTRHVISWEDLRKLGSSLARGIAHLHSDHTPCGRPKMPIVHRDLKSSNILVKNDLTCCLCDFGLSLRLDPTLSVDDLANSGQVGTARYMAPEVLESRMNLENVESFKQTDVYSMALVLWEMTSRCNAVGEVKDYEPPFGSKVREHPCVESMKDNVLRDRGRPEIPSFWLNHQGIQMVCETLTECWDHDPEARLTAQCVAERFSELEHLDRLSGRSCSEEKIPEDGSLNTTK

[5] = molecular target: T2, recombinant human TGF-β RII/Fc chimera …; test: SPR Biacore T200, receptor-Fc captured by anti-human IgG, dAb as analyte, 1:1 model
Method: (§1) Anti-human IgG was immobilised on a Biacore CM4 chip by primary amine coupling according to the manufacturer's instructions. Human TGF-β RII/Fc, cynomolgus TGF-β RII/Fc or human Fc fragment were captured on this surface. Domain antibodies were passed over the two captured receptors at 3 concentrations of 100, 10 and 1 nM (DOM23h-439 dAbs) or 100, 25 and 6.25 nM (DOM23h-271 dAbs). Only the 100 nM concentration of each dab was passed over human Fc fragment to confirm specificity of binding to the extracellular TGF-β RII domain. An injection of buffer over the captured antigen surface was used for double referencing. […] All runs were carried out at 25° C. using HBS-EP buffer as running buffer. Data were generated using the BIACORE™ T200 and fitted to the 1:1 binding model inherent to the software. […] The DOM23h-271 dAbs and the DOM23h-439 lineages were run in separate experiments.

[6] = molecular target: T3, cynomolgus TGF-β RII/Fc (cynomolgus); test: as above
T3 construct: extracellular domain; also called Cyno TGFBRII; Cyno TGFbRII
Method: as §1

B1: DOM23m-29 (VHH, not shown: small tags and cut ends)
VHH: EVQLLESGGGLVQPGGSLRLSCAASGFTFKRYSMGWVRQAPGKGLEWVSVINDLGSLTYYADSVKGRFTISRDNSKNTLYLQMNSLRAEDTAVYYCAKGNISMVRPGSWFDYWGQGTLVTVSS
- max % inhibition, Average (Mouse 3T3 cell assay, method m1) [1]: 54.2%

B2: DOM23m-32 (VHH, not shown: small tags and cut ends)
VHH: EVQLLESGGGLVQPGGSLRLSCAASGFTFFEYPMGWVRQAPGKGLEWVSVISGDGQRTYYADSVKGRFTISRDNSKNTLYLQMNSLRAEDTAVYYCAKSHTGTVRHLETFDYWGQGTLVTVSS
- max % inhibition, Average (Mouse 3T3 cell assay, method m1) [1]: 39.7%

B3: DOM23h-271 mutant 1A2 (R at 61, A at 64) (VHH, name in Kabat numbering)
VHH: EVQLLESGGGLVQPGGSLRLSCAASGFTFTEYRMWWVRQAPGKGLEWVSAIEPIGNRTYYARSVAGRFTISRDNSKNTLYLQMNSLRAEDTAVYYCAKQIPGRKWTANSRFDYWGQGTLVTVSS
notes: human VH dAb; expressed from pDOM13
- Kd [2]: 2.24 nM

B4: DOM23h-271-21 (VHH)
VHH: EVQLLESGGGLVQPGGSLRLSCAASGFTFTEYRMWWVRQAPGKGLEWVSAIEPIGNRTYYADSVKGRFTISRDNSKNTLYLQMNSLRAEDTAVYYCAKQMPGRKWTAKFRWDYWGQGTLVIVSS
notes: human VH dAb from DNA display; expressed from pDOM13
- Kd [3]: 0.147 nM
- koff [3]: 0.000472 s⁻¹
- kon [3]: 3.21e+06 M⁻¹ s⁻¹

B5: DOM23h-271 mutant 2C12 (D61N, K64R) (VHH, name in Kabat numbering)
VHH: EVQLLESGGGLVQPGGSLRLSCAASGFTFTEYRMWWVRQAPGKGLEWVSAIEPIGNRTYYANSVRGRFTISRDNSKNTLYLQMNSLRAEDTAVYYCAKQIPGRKWTANSRFDYWGQGTLVTVSS
notes: human VH dAb; expressed from pDOM13; also called NR
- Kd [2]: 3.34 nM

B6: DOM23h-271 mutant 1D5 (K at 61, F at 64) (VHH, name in Kabat numbering)
VHH: EVQLLESGGGLVQPGGSLRLSCAASGFTFTEYRMWWVRQAPGKGLEWVSAIEPIGNRTYYAKSVFGRFTISRDNSKNTLYLQMNSLRAEDTAVYYCAKQIPGRKWTANSRFDYWGQGTLVTVSS
notes: human VH dAb; expressed from pDOM13; also called KF
- Kd [2]: 3.69 nM

B7: DOM23h-271 mutant 1G11 (R at 61, M at 64) (VHH, name in Kabat numbering)
VHH: EVQLLESGGGLVQPGGSLRLSCAASGFTFTEYRMWWVRQAPGKGLEWVSAIEPIGNRTYYARSVMGRFTISRDNSKNTLYLQMNSLRAEDTAVYYCAKQIPGRKWTANSRFDYWGQGTLVTVSS
notes: human VH dAb; expressed from pDOM13; also called RM
- Kd [2]: 0.97 nM

B8: DOM23h-271 mutant 3D4 (K at 61, T at 64) (VHH, name in Kabat numbering)
VHH: EVQLLESGGGLVQPGGSLRLSCAASGFTFTEYRMWWVRQAPGKGLEWVSAIEPIGNRTYYAKSVTGRFTISRDNSKNTLYLQMNSLRAEDTAVYYCAKQIPGRKWTANSRFDYWGQGTLVTVSS
notes: human VH dAb; expressed from pDOM13; also called KT
- Kd [2]: 4.26 nM

B9: DOM23h-271 mutant 1B11 (R at 61, V at 64) (VHH, name in Kabat numbering)
VHH: EVQLLESGGGLVQPGGSLRLSCAASGFTFTEYRMWWVRQAPGKGLEWVSAIEPIGNRTYYARSVVGRFTISRDNSKNTLYLQMNSLRAEDTAVYYCAKQIPGRKWTANSRFDYWGQGTLVTVSS
notes: human VH dAb; expressed from pDOM13; also called RV
- Kd [2]: 1.88 nM

B10: DOM23h-271 mutant 1E6 (R at 61, Y at 64) (VHH, name in Kabat numbering)
VHH: EVQLLESGGGLVQPGGSLRLSCAASGFTFTEYRMWWVRQAPGKGLEWVSAIEPIGNRTYYARSVYGRFTISRDNSKNTLYLQMNSLRAEDTAVYYCAKQIPGRKWTANSRFDYWGQGTLVTVSS
notes: human VH dAb; expressed from pDOM13; also called RY
- Kd [2]: 1.17 nM

B11: DOM23h-271 mutant 3D9 (K at 61, G at 64) (VHH, name in Kabat numbering)
VHH: EVQLLESGGGLVQPGGSLRLSCAASGFTFTEYRMWWVRQAPGKGLEWVSAIEPIGNRTYYAKSVGGRFTISRDNSKNTLYLQMNSLRAEDTAVYYCAKQIPGRKWTANSRFDYWGQGTLVTVSS
notes: human VH dAb; expressed from pDOM13; also called KG
- Kd [2]: 4.34 nM

B12: DOM23h-271 mutant 1B2 (V at 61, W at 64) (VHH, name in Kabat numbering)
VHH: EVQLLESGGGLVQPGGSLRLSCAASGFTFTEYRMWWVRQAPGKGLEWVSAIEPIGNRTYYAVSVWGRFTISRDNSKNTLYLQMNSLRAEDTAVYYCAKQIPGRKWTANSRFDYWGQGTLVTVSS
notes: human VH dAb; expressed from pDOM13; also called VW
- Kd [2]: 1.79 nM

B13: DOM23h-271 mutant 1H11 (L at 61, W at 64) (VHH, name in Kabat numbering)
VHH: EVQLLESGGGLVQPGGSLRLSCAASGFTFTEYRMWWVRQAPGKGLEWVSAIEPIGNRTYYALSVWGRFTISRDNSKNTLYLQMNSLRAEDTAVYYCAKQIPGRKWTANSRFDYWGQGTLVTVSS
notes: human VH dAb; expressed from pDOM13; also called LW
- Kd [2]: 4.17 nM

B14: DOM23h-271 mutant 3F11 (R at 61, E at 64) (VHH, name in Kabat numbering)
VHH: EVQLLESGGGLVQPGGSLRLSCAASGFTFTEYRMWWVRQAPGKGLEWVSAIEPIGNRTYYARSVEGRFTISRDNSKNTLYLQMNSLRAEDTAVYYCAKQIPGRKWTANSRFDYWGQGTLVTVSS
notes: human VH dAb; expressed from pDOM13; also called RE
- Kd [2]: 3.27 nM

B15: DOM23h-271 mutant 1D9 (R at 61, D at 64) (VHH, name in Kabat numbering)
VHH: EVQLLESGGGLVQPGGSLRLSCAASGFTFTEYRMWWVRQAPGKGLEWVSAIEPIGNRTYYARSVDGRFTISRDNSKNTLYLQMNSLRAEDTAVYYCAKQIPGRKWTANSRFDYWGQGTLVTVSS
notes: human VH dAb; expressed from pDOM13; also called RD
- Kd [2]: 1.17 nM

B16: DOM23h-439-43 (DOM23h-439-25 + C-terminal Alanine + 64R) (VHH)
VHH: EVQLLESGGGLVQPGGSLRLSCAASGFTFGTEQMWWVRQAPGKGLEFVSRIDSPGGRTYYADSVRGRFTISRDNSKNTLYLQMNSLRAEDTAVYYCAKRRPTGVSGTFYDYWGQGTLVTVSS
notes: human VH dAb
- IC50 nM, Mean (SBE-bla HEK 293T cell sensor assay) [4]: 1 nM
- Kd [5]: 0.0423 nM
- koff [5]: 0.000373 s⁻¹
- kon [5]: 8.83e+06 M⁻¹ s⁻¹
- Kd [6]: 0.149 nM
- koff [6]: 0.0012 s⁻¹
- kon [6]: 8.04e+06 M⁻¹ s⁻¹

B17: DOM23h-439-44 (DOM23h-439-25 + C-terminal Alanine + 61N64R) (VHH)
VHH: EVQLLESGGGLVQPGGSLRLSCAASGFTFGTEQMWWVRQAPGKGLEFVSRIDSPGGRTYYANSVRGRFTISRDNSKNTLYLQMNSLRAEDTAVYYCAKRRPTGVSGTFYDYWGQGTLVTVSS
notes: human VH dAb
- IC50 nM, Mean (SBE-bla HEK 293T cell sensor assay) [4]: 1.3 nM
- Kd [5]: 0.00289 nM
- koff [5]: 6.91e-05 s⁻¹
- kon [5]: 2.39e+07 M⁻¹ s⁻¹
- Kd [6]: 0.00677 nM
- koff [6]: 0.000147 s⁻¹
- kon [6]: 2.17e+07 M⁻¹ s⁻¹

B18: DOM23m-81 (VHH, not shown: small tags and cut ends)
VHH: EVQLLESGGGLVQPGGSLRLSCAASGFTFEPVIMGWVRQAPGKGLEWVSAIEARGGGTYYADSVKGRFTISRDNSKNTLYLQMNSLRAEDTAVYYCAKPGRHLSQDFDYWGQGTLVTVSS
- max % inhibition, Average (Mouse 3T3 cell assay, method m2) [1]: 30.3%

B19: DOM23m-99 (VHH, not shown: small tags and cut ends)
VHH: EVQLLESGGGLVQPGGSLRLSCAASGFTFDRYRMMWVRQAPGKGLEWVSTIDPAGMLTYYADSVKGRFTISRDNSKNTLYLQMNSLRAEDTAVYYCAKRLASRSHFDYWGQGTLVTVSS
- max % inhibition, Average (Mouse 3T3 cell assay, method m2) [1]: 46.5%

Reference: patent US20150361176A1 (GlaxoSmithKline, published 2015)
